According to US20170298359, “OLIGONUCLEOTIDE TARGETED TO THE A20-THREE PRIME UNTRANSLATED REGION” (Max-Delbrück-Centrum für Molekulare Medizin in …, published 2017):

What was measured:
[1] = target: T1, RC3H1-N2 (Roquin-1, RING, ROQ and CCCH zinc finger domains) (Homo sapiens, UniProt Q5TC82 Q5TC82:2-452); test: EMSA; same buffer; similar to RC3H1-N1; settings: tags: N-terminal His7 cleaved with TEV protease, E. coli Rosetta 2 (DE3), pQLinkH; label: 5'-32P; hairpin
T1 sequence: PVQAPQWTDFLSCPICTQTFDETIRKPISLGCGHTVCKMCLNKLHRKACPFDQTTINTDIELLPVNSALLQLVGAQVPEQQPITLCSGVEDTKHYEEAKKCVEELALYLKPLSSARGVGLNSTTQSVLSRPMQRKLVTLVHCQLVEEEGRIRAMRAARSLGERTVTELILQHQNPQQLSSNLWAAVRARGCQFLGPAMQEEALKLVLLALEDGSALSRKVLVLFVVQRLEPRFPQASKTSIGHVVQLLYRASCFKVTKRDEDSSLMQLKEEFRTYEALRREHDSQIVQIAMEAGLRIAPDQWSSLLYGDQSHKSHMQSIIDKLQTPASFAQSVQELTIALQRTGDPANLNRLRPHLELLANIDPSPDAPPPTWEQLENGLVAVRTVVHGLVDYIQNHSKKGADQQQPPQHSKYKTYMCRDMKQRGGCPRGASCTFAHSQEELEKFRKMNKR
Protocol: (§1) The EMSA was performed as described before⁴⁹ with the following modifications: RNA was prepared by 5′ end-labeling of commercially synthesized RNA oligonucleotides with [γ-³²P]-ATP using T4 polynucleotide kinase (NEB). Labeled RNA was gel purified and eluted and adjusted with H₂O to 1 pmol/μl. 50 fmol of labelled RNA was used per 20 μl reaction. Prior to binding reactions, a master mix containing labelled RNA, lx binding buffer (20 mM Tris-HCl (pH 7.5), 50 mM KCl, 5 mM MgCl₂, 20 μM ZnSO₄, 10% glycerol), 2 mM DTT, 0.05 mg/ml BSA, and 5 μg/ml heparin was heated at 90° C. for 1 min and gradually cooled down to room temperature. In parallel, a dilution series of 10× protein stocks was prepared in 1× protein dilution buffer (1× binding buffer, 5 μg/ml heparin). For each binding reaction, 2 μl of the 10× protein stock was added to 18 μl of the mastermix at room temperature for 2 h. After addition of 4 μl 6× loading buffer (30% glycerol, bromphenol blue, xylene cyanol), RNP complexes were resolved by nondenaturing PAGE (6% polyacrylamide, 0.5×TBE, 5% glycerol) in ice-cold 0.5×TBE buffer containing 20 μM ZnSO₄ at 100 V for 40 min. The protein-bound RNA and the free RNA were quantified using a phosphorimager.

[2] = target: T2, RC3H1-N1 (Roquin-1, RING and ROQ domains) (Homo sapiens, UniProt Q5TC82 Q5TC82:2-399); test: EMSA; 20 mM Tris-HCl pH 7.5, 50 mM KCl, 5 mM MgCl2, 20 uM ZnSO4, 5 ug/ml heparin, room temperature; binding independent of CCCH zinc finger; settings: tags: N-terminal His7 cleaved with TEV protease, E. coli Rosetta 2 (DE3), pQLinkH; label: 5'-32P; hairpin
T2 sequence: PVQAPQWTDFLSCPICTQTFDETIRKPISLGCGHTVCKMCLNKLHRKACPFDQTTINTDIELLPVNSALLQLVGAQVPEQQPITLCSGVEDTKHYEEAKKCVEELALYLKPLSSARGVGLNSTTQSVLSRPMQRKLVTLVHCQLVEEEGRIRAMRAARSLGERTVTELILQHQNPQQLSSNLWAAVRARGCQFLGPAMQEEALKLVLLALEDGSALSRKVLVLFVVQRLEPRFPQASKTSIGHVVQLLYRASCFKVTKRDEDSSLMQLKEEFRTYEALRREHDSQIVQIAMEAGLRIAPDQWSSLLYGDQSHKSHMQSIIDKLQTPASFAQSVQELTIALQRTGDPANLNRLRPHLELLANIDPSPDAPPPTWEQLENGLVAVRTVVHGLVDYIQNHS
Protocol: as §1

[3] = target: T1, RC3H1-N2 (Roquin-1, RING, ROQ and CCCH …); test: EMSA; same buffer; higher affinity than RC3H1-N1; settings: tags: N-terminal His7 cleaved with TEV protease, E. coli Rosetta 2 (DE3), pQLinkH; label: 5'-32P; hairpin
Protocol: as §1

[4] = target: T1, RC3H1-N2 (Roquin-1, RING, ROQ and CCCH …); test: EMSA; same buffer; higher affinity than for the 23 nt hairpin; reduced by antisense LNA SEQ 6 (FIG. 5c); settings: tags: N-terminal His7 cleaved with TEV protease, E. coli Rosetta 2 (DE3), pQLinkH; label: 5'-32P
Protocol: as §1

AUUUCUGUGAAAU (ssRNA) [ICOS CDE-like stem-loop 13 nt]
binding result [1]: binds
binding result [2]: binds

ACCCUUACAUUAUGUAUGAGGGA (ssRNA) [A20 23 nt hairpin]
binding result [3]: binds

AUAUAUAAUAUACCCUUACAUUAUGUAUGAGGGAUUU (ssRNA) [A20 37 nt]
binding result [4]: binds
